# Results published in US20060141545A1.
# Tests used:
# [1] = biological target: murine VCAM-1 (vascular endothelial adhesion molecule-1) (murine) (UniProt P29533); assay: cell-based or functional assay
# [2] = biological target: murine VCAM-1 (vascular endothelial adhesion molecule-1) (murine) (UniProt P29533); assay: bEnd.3 cells, unstimulated against IL-1α-stimulated
# [3] = biological target: murine VCAM-1 (vascular endothelial adhesion molecule-1) (murine) (UniProt P29533); assay: IL-1α-activated bEnd.3 cells treated with anti-VCAM-1•tTF, bound coaguligand detected with 125I-labeled 10H10
# UniProt P29533, sequence (P29533 25-739): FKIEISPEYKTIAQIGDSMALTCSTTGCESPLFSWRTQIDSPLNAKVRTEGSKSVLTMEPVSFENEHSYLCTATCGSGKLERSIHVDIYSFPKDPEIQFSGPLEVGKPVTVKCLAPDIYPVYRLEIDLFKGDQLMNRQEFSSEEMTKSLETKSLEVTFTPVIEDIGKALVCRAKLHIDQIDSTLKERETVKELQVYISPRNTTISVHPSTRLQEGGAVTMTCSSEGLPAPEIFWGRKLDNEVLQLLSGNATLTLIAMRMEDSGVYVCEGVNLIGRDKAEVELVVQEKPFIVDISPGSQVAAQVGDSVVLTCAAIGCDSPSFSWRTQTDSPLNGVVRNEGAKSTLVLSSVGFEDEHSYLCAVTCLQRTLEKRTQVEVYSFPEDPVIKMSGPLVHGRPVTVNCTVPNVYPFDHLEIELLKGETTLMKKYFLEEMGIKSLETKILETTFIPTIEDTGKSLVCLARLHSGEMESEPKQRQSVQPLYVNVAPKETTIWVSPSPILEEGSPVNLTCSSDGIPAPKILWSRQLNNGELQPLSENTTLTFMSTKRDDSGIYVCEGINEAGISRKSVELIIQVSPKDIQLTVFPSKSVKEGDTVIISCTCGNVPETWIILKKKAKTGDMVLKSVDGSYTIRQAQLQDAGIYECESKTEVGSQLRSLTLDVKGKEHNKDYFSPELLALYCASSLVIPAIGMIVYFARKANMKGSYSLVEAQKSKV
substance,measurement,setting,value
anti-VCAM-1•tTF coaguligand (MK2.7 anti-VCAM-1 IgG covalently linked through SMPT to truncated human tissue factor) (from UniProt P13726 33-251),"Generation of factor Xa (chromogenic assay, S-2765), intact IL-1α-stimulated bEnd.3 cells (ng per 10^4 cells per 60 min)",[1],3.17
same,"Generation of factor Xa (chromogenic assay, S-2765), intact unstimulated bEnd.3 cells (ng per 10^4 cells per 60 min)",[1],1.64
same,"Generation of factor Xa (chromogenic assay, S-2765), saponin-permeabilized IL-1α-stimulated bEnd.3 cells (ng per 10^4 cells per 60 min)",[1],98.8
same,"Generation of factor Xa (chromogenic assay, S-2765), saponin-permeabilized unstimulated bEnd.3 cells (ng per 10^4 cells per 60 min)",[1],49.2
same,"factor Xa produced by permeabilized IL-1α-stimulated bEnd.3 cells preincubated with coaguligand, no Annexin V","[1]; scale: ng of factor Xa per 10,000 cells per 60 min",95
same,amount bound to unstimulated cells against stimulated cells,[2],50 % lower
same,amount of anti-TF antibody bound at saturation,[3],8.7 fmol
same,molecules of anti-TF antibody bound per cell at saturation (molecules per cell),[3],540000
